Measured values published in US20150044137A1 (UNITED STATES OF AMERICA AS REPRESENTED BY THE SECRETARY …, published 2015).
Residue numbers refer to the chain shown, from its start.

Columns and labels:
[1] = biological target: RSC3 probe; test: ELISA-type plate assay (OD450), mAb titrated on RSC3 [panel VRC14b]
[2] = biological target: RSC3 probe; test: ELISA-type plate assay (OD450), mAb titrated on RSC3 [panel VRC14]
[3] = biological target: RSC3 probe; test: ELISA-type plate assay (OD450), mAb titrated on RSC3 [panel VRC14c]
[4] = biological target: T1, Yu2 gp120 HIV-1 Env protein (HIV-1 (strain Yu2), UniProt P35961 32-498)
[5] = biological target: T1, Yu2 gp120 HIV-1 Env protein; test: ELISA-type plate assay (OD450), mAb titrated on Yu2 gp120 WT

B1: VRC14b (antibody, V domains shown)
VH: QVQLVQSGTALKSPGSSAKLSCTVLGDEFGTYFISWIRQAPGQGLEWVGGIVPHSQLQSSAQKFHGRITISAGAGVTPPVVSLQLTNLTFEDTGTYFCARERGRHRDPKTGDALRGRYFDFWGRGTGVRVST
VL: QSALTQPAFVSGSPGQSITLSCTLGTEDVSWYQQRPNSAPRLIIFDVKKRPSDVSDRFSGHNSDTAAFLTISELRPEDEAEYFCTSWPYRFGRGTKVDVA
[1]
  EC50 (read off the curve): ~7 ng/mL

B2: VRC14 (antibody, V domains shown)
VH: B1 VH with T69I, V128L
VL: QSALTQPAFVSGSPGQSITLSCSLGTADVSWYQQRPNSAPRLIIFDVKKRPSDVSDRFSGHNSDTAAFVTISELRPEDEAEYFCTSWPYRFGPGTKVDVAR
notes: also called mAb VRC14
[2]
  EC50 (read off the curve): ~6 ng/mL

B3: VRC14c (antibody, V domains shown)
VH: B1 VH with T69I, D112K, L114P, R129T, T132A
VL: B1 VL with E81D, G92D
[3]
  EC50 (read off the curve): ~20 ng/mL

B4: VRC13 (antibody, V domains shown)
VH: QVQLVQPGTAMKSLGSSLTITCRVSGDDLGSFHFGTYFMIWVRQAPGQGLEYMGGILPSTKTPTYAHKFRGRVSISAPGVPPVLSLALTNLTYDDTATYFCARERGRHFEPKNRDNLEGKFFDLWGRGTFVRVSP
VL: QSALTQPASVSGSPGQSINISCAGRSDRVSWYQQRPNGVPKLLMFDVYRRPSGVSDRFSGSHSGDTAFLTISGLQTEDEADYYCTSHPYAFGAGTKVNVLR
[4]
  IC50 (read off the curve): ~400 ng/mL

B5: VRC16b (antibody, V domains shown)
VH: EVQLSESGGGVVKPGGSLRLSCEASGFTFSNYAMSWVRQAPGKGLEWVSVTGGHGTYGYYGEFVKGRFTISRDHSMDTVYLQMNRLRVEDTAVYYCVRTPYYHESSGYYYRAGNYFDFWGKGTLVIVSA
VL: DIQMTQSPSSLSASVGDRVTITCRASQDIANYLNWYQKKSGTPPKLLIFAATNLHRGVSPRFSGSGSGTHFSLTITNVQYEDFANYFCQHSFGTIGTFGQGTWVDIR
[5]
  EC50 (read off the curve): ~20 ng/mL

B6: VRC16c (antibody, V domains shown)
VH: EVQLSESGGGFVKPGGSLRLSCEASGFTFNNYAMSWVRQAPGKGLEWVSVTSAHGGSAYYGEFVKGRFTMSRDHFIDTVYLEMNRLTVEDTAVYYCVRVTFYHEGSGYYYRAGNYFDSWGKGTRVVVSA
VL: B5 VL with V15I, S63T, S67H, Y80H, A84G, N85H, H90Q, G93A, I95V, T97S
[5]
  EC50 (read off the curve): ~5 ng/mL

B7: VRC16d (antibody, V domains shown)
VH: B6 VH with R85G
VL: B5 VL with V15I, S63T, S67H, Y80H, A84G, H90Q, G93A, I95V, T97S
[5]
  EC50 (read off the curve): ~5 ng/mL
